# Assay results reported in the RNAGym collection of RNA variant scans (doi:10.1073/pnas.2313332121).
# Fewer inactive variants are shown than the library holds.
# B1: TPR 5TU (parent)
# chain: GGAUCUUCUCGAUCUAACAAAAAAGACAAAUCUGCCACAAAGCUUGAGAGCAUCUUCGGAUGCAGAGGCGGCAGCCUUCGGUGGCGCGAUAGCGCCAACGUUCUCAACUAUGACACGCAAAACGCGUGCUCCGUUGAAUGGAGUUUAUCAUG
# Variants of: B1
# Assay: polymerase ribozyme fitness, log enrichment relative to wild type (log ratio); higher = more active; in vitro selection for triplet polymerase activity
# How it was run: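 Each subunit of a heterodimeric triplet polymerase ribozyme was represented by a PCR-built, transcribed mutant library that underwent triplicate single-round in vitro selection with frozen incubation at −7 °C. Extended constructs were recovered by gel excision, streptavidin-bead capture and RT-PCR, and Illumina sequencing of input and output libraries kept genotypes with ≥10 input reads and ≥1 read per output. Fitness is the logarithm of genotype enrichment relative to wild-type enrichment, from inverse-variance-weighted replicate averages, with a logarithm base of 2.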
row,Variant,polymerase ribozyme fitness (log ratio)
1,C10G U109C A137C,≤ -4.2
2,C10U C116U A147C,-3.39
3,C10G G92U,-3.24
4,C10G G92C,-3.61
5,G11U C87G,-4.09
6,C10U G42C C69A C95G A142G A150G,≤ -4.2
7,C10G U31A U44C C57A G59U U61G G92C A107U,≤ -4.2
8,G11A G59A,-1.71
9,G11U A17C A37U A121U A122U,-3.25
10,C10U U13C A37C G70A C79A G84A A107C,≤ -4.2
11,G11C A52G G84A G133C G141A,≤ -4.2
12,C10G G94A,-3.44
13,C10U G92A G141C,-3.99
14,G11C A40G G84A A97C G126A,≤ -4.2
15,C10U C75U G84A U145A,-4.08
16,G11A A37C U56G G83A U145G,-3.73
17,C10U G94A U148G,≤ -4.2
18,G11A A91G,-3.81
19,C10U U33G C38G U44G A52G C87U C108U C118U,≤ -4.2
20,G11A A64G G88U U101G C103G U146G,≤ -4.2
21,C10U C35U A47C C85A A89C C93U C95U,≤ -4.2

row,Variant,polymerase ribozyme fitness (log ratio)
1,G11U A26U U61G G84U C85A C96A U139A,≤ -4.2
2,G11A G94U A113C C114U A122C G143U C149U,≤ -4.2
3,C10G C38U C87A C93G,≤ -4.2
4,G11U G34A G50A C85U U90C G143A,≤ -4.2
5,C10U C14G A39C A91G C95G C99U C105G A137G,≤ -4.2
6,G11C G25C A28G C36G C75U C96U A115U A122U,-3.98
7,C10U A23G G50U U53A G71C C87A A120U,≤ -4.2
8,G11C G50A G92U G143A,-4.01
9,C10U C93A,-3.86
10,C10G G46U G143C U148C,≤ -4.2
11,G11U A22G C54U G65A C76U A98U C103G U144G,≤ -4.2
12,G11U C51U A113U C132A U139G U146A,≤ -4.2
13,C10U A41U G92C U139G,-4.06
14,G11U A41U C93U C99A U104G C118U G140U G152U,-4.02
15,C10G U78G C85G U109C G140U,≤ -4.2
16,G11C C75U,-1.85
17,G11C A39U A73U C96U,≤ -4.2
18,C10U G42U A64U C93A A106U C123U G140A,≤ -4.2
19,G11A C85G G94U,-0.903
20,G11C A29G A40U C76U C87U,≤ -4.2
21,G11U A91G,-3.82

row,Variant,polymerase ribozyme fitness (log ratio)
1,C10U U45A C54A G71C G136U,≤ -4.2
2,G11C A28G U56A U77A C87A A122U,≤ -4.2
3,G11A C32U G71A A137G A138G,≤ -4.2
4,C10U A52C C87U G88A A122U C123G,≤ -4.2
5,C10G G11U C32A C51U C75U C93U C95A,-4.16
6,G11U G34A G88A G124A,≤ -4.2
7,G11A A40C A49C G74C C85A C95G G100C A147U,≤ -4.2
8,G11U U55G A60G G67A C93U,≤ -4.2
9,G11U C14G G34U G84U G141U,≤ -4.2
10,C10U G50C A64C G65C C93A A142U,≤ -4.2
11,C10U U45A C99A,≤ -4.2
12,G11A A39U A40C G100C,≤ -4.2
13,G11A A60G A106G,-0.626
14,C10U A24U C35U A91G C93G A98C C118U,≤ -4.2
15,G11C A40C G83U A119G,-2.65
16,G11C A17U C79G G86U U101G C125U G152A,≤ -4.2
17,G11A A21U C85U,-1.32
18,C10U C14G G34U U56G,≤ -4.2
19,G11U C93U A119C C149U,-3.06
20,G11A A24G A41U C51A G59A G80A G84U U90A,≤ -4.2
21,G11U C32U C93G A107G,≤ -4.2

row,Variant,polymerase ribozyme fitness (log ratio)
1,C10U U55A C72U,-3.95
2,C10U A23U U90G,≤ -4.2
3,G11U A22C C87U,-2.61
4,C10G G11U U15C G84A G88U,≤ -4.2
5,C10U C51G A52U C87A C123U G141C,≤ -4.2
6,G11U A52U,-2.33
7,G11A A26C U90G,≤ -4.2
8,C10U G42C G88U C105G G143U,≤ -4.2
9,G11A G50U U82C G86A C116A,-3.47
10,G11C C63U C85U G86U C114U,≤ -4.2
11,C10U C57U C96U,-3.83
12,G11C C18G A23C G48A G88U C93G U144A,≤ -4.2
13,C10U A16C A39C G50U U56A G67C G94C C108U,≤ -4.2
14,G11C U15G A20C A28U C85U G140U U145G,≤ -4.2
15,G11C C57U C95U U127A C149A,≤ -4.2
16,G11U C54U U77G G92U U145A A147U,≤ -4.2
17,G11U A52G A60G G83U,-3.33
18,C10U G136A,-2.74
19,G11A A23U U53A G92U C108U A142U,≤ -4.2
20,G11C C114U U139A,≤ -4.2
